{"source": "paper PMC12618258", "about": "“The human ribosome modulates multidomain protein biogenesis by delaying cotranslational domain docking” (Nature Structural & Molecular Biology, 2025)", "proteins": {"B1": {"name": "isolated Ns (isoNs, residues 1–190) of firefly luciferase (domain or fragment, UniProt P08659 1-190, looked up)", "chain": "MEDAKNIKKGPAPFYPLEDGTAGEQLHKAMKRYALVPGTIAFTDAHIEVNITYAEYFEMSVRLAEAMKRYGLNTNHRIVVCSENSLQFFMPVLGALFIGVAVAPANDIYNERELLNSMNISQPTVVFVSKKGLQKILNVQKKLPIIQKIIIMDSKTDYQGFQSMYTFVTSHLPPGFNEYDFVPESFDRDK", "notes": "firefly luciferase (FLuc, 550 residues), UniProt Q27758_PHOPY, residues 1-190 (Ns subdomain), off the ribosome; The truncations carried an N-terminal His-SUMO tag; The printed monomer mass of ~21.5 kDa fits the cleaved fragment; source: E. coli BL21, purified (HisTrap, Ulp1 cleavage, reverse IMAC, Superdex gel filtration); not shown: His, N-terminal, cleaved; SUMO, N-terminal, cleaved"}}, "target": "the molecule itself", "test": "SEC-MALS; 100 μl of Ns at 0.1 or 0.2 mg/ml (~5 or 10 µM) on Superdex 200 10/30 increase GL; 20 mM HEPES pH 7.5, 100 mM KCl, 5 mM magnesium acetate, 200 mM arginine-HCl, 1 mM DTT, 2 mM sodium azide", "data": [{"protein": "B1", "values": [{"measurement": "stoichiometry N", "value": 2}]}]}
